B1: recombinant AMY3 (α-amylase3) lacking the chloroplast transit peptide, purified (enzyme, Arabidopsis, UniProt Q94A41 56-887, looked up)
chain: SMNKSPVAIRATSSDTAVVETAQSDDVIFKEIFPVQRIEKAEGKIYVRLKEVKEKNWELSVGCSIPGKWILHWGVSYVGDTGSEWDQPPEDMRPPGSIAIKDYAIETPLKKLSEGDSFFEVAINLNLESSVAALNFVLKDEETGAWYQHKGRDFKVPLVDDVPDNGNLIGAKKGFGALGQLSNIPLKQDKSSAETDSIEERKGLQEFYEEMPISKRVADDNSVSVTARKCPETSKNIVSIETDLPGDVTVHWGVCKNGTKKWEIPSEPYPEETSLFKNKALRTRLQRKDDGNGSFGLFSLDGKLEGLCFVLKLNENTWLNYRGEDFYVPFLTSSSSPVETEAAQVSKPKRKTDKEVSASGFTKEIITEIRNLAIDISSHKNQKTNVKEVQENILQEIEKLAAEAYSIFRSTTPAFSEEGVLEAEADKPDIKISSGTGSGFEILCQGFNWESNKSGRWYLELQEKADELASLGFTVLWLPPPTESVSPEGYMPKDLYNLNSRYGTIDELKDTVKKFHKVGIKVLGDAVLNHRCAHFKNQNGVWNLFGGRLNWDDRAVVADDPHFQGRGNKSSGDNFHAAPNIDHSQDFVRKDIKEWLCWMMEEVGYDGWRLDFVRGFWGGYVKDYMDASKPYFAVGEYWDSLSYTYGEMDYNQDAHRQRIVDWINATSGAAGAFDVTTKGILHTALQKCEYWRLSDPKGKPPGVVGWWPSRAVTFIENHDTGSTQGHWRFPEGKEMQGYAYILTHPGTPAVFFDHIFSDYHSEIAALLSLRNRQKLHCRSEVNIDKSERDVYAAIIDEKVAMKIGPGHYEPPNGSQNWSVAVEGRDYKVWETS

How the values were obtained:
[1] = biological target: recombinant AMY3 (α-amylase3) lacking the chloroplast transit peptide, purified (Arabidopsis) (UniProt Q94A41); experiment: SEC-MALS + other: SAXS
cross-linking = biological target: the molecule itself; experiment: cross-linking

| Molecule | stoichiometry N (BAM9 per AMY3 (heterodimer)) [1] | stoichiometry N (cross-linking) |
| --- | --- | --- |
| recombinant BAM9 (β-amylase9), purified (from UniProt Q8VYW2 1-536) (natural protein) | 1 |  |
| B1 |  | 2 |

From article PMC11326238 (bioRxiv, 2024)
